Assay results reported in the nanobody polyreactivity screen of Harvey et al. (2022).

Assay: yeast display, Sf9 membrane polyspecificity reagent, FACS + sequencing; frameworks hold sequencing errors
How it was run: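 In a synthetic yeast display library (Saccharomyces cerevisiae BJ5465), nanobody expression was induced with galactose for 36–48 hours. FACS gates were set low and high (top ~1%) using anti-HA fluorescence for expression and streptavidin fluorescence for binding of the Sf9 membrane reagent. Each polyreactivity label is drawn from the gate of origin.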

Sequence	polyreactivity (PSR sort gate)
QVQLVESGGGLVQAGGSLRLSCAASGSILYWYAMGWYRQAPGKERELVAAITSSGDSTDYADSVKGRFTISRDNAKKTVYLQMNILKPEDSAVYYCNVQPVYADHFTEFDYCGQGTQVTVSS	low polyreactivity
QVQLVESGGGLVQAGGSLRLSCAASGSILYYAMGWYRQAPGKERELVATITRGGSTYYADSVKGRFTISRDNAKNTVYLQMNSLKPDDTAVYYCAARRAVRVGYYWHDISSYDYWGQGTQVTVPS	low polyreactivity
QVQLVESGGGLVQAGGSLRLSCAASGSINYYAMGWYRQAPVKERELVAAITRSGGGTYYADSVKGRFTISRDNAMNTVYLQMNSLIPEDTAVYYCAAARYSRAQPNWTYNYWGQGTQVTVSS	high polyreactivity
QVQLVESGGGLVQAGGSLRLSCAASGSISAIYTMGWYRQATGKERELVAAITGSAGSTYADSVKGRFTISRDNAKNTVYLQMNSLKPEDTAVYYCNAQPGDDVKVKLDYWGQGSQVTVSS	low polyreactivity
QVQLVESGGGLVQAGGSLRLSCAASGSISAVNTMGWYRQAPGKERELVATISYSTASTYYADSVKGRFTISRDNAKITVYLQMNCLKPEDTAVYFCAADAYFDTWYDYWGQGTQVTVSS	low polyreactivity
QVQLVESGGGLVQAGGSLRLSCAASGSISETNAMGWYRQAPGKERELVAAISGSGGSTYADSVKGRFTISRDNAKNTVYLQMNSLKPEDTAVYYCARDRYYTREWYWYRHDHWGQGTQVTVSS	low polyreactivity
QVQLVESGGGLVQAGGSLRLSCAASGSISGLYAMGWYRQATGKERELVAAITFRDGTTSYADSVKGRFTISRDNAKNTVYLQMNSLKPEDTAVYYCAAVDRDSNSSVPTLDHWGQGTQVTVSS	low polyreactivity
QVQLVESGGGLVQAGGSLRLSCAASGSISGRYAMGWSRQAPGKEMELVAAISWIGGSTYYADSVKGRFTISRDNAKNTVYLQMISLKPEDTAVYYCYVTIDTRTDPLLVVLYGYDYWGQGTLVTVSS	low polyreactivity
QVQLVESGGGLVQAGGSLRLSCAASGSISGWYAMGWYRQAPGKERELVADISSIAGSTYYADSVKGRFTISRDNAKNTVYLQMNSLKPEDTAVYYCAADRGFYYEYDYWGQGTQVTVSS	low polyreactivity
QVQLVESGGGLVQAGGSLRLSCAASGSISGYYAMGWYRQAPGKERELVASIRYTGARTYYADSVKGRFTISRDNAKNTVYLQMNSLKPEDTAVYYCNARVDWGWPGYEYDYWGQGTQVTVSS	low polyreactivity
QVQLVESGGGLVQAGGSLRLSCAASGSISKINAMGWYRQAPWKERELVAAINTGDSTYYADSVKGRFTISRDNAKNTVYLLMNSLKPEDTAVYYCAAECSPTGYDYWGQGTQVTVSS	low polyreactivity
QVQLVESGGGLVQAGGSLRLSCAASGSISPVYAMGWYRQAPGKERELVAAYADSVKGRFTISRDNAKNTVYLQMNSLIPEDTAVYYCNVVETSQELGWQAFDYWGQGTQVTVSS	low polyreactivity
QVQLVESGGGLVQAGGSLRLSCAASGSISTPYTMGWYRQAPGKERELVAAISWIGDTTSYADSVKGRFTISRDNAKNTVYLQMHSLKPEETAVYYCNAEHRGYDYWGQGTQVTVSS	low polyreactivity
QVQLVESGGGLVQAGGSLRLSCAASGSISTVYAMGWYRQAPGKEMELVAAISWSGGSTYYADSVKGRFTISRDNAKNTVYLQMNSLKPEDTAVYYCAAEGYLVGSRWGPRYGDYWGQGTQVTVSS	high polyreactivity
QVQLVESGGGLVQAGGSLRLSCAASGSISVANAMGWYRQAPGKERELVAAITDSGDDTYYADSVKGRFTISRDTAKNTVYLQMNSLKPEDTAVYYCAVEAWSVPPYDYWGQGTQVTVSS	low polyreactivity
QVQLVESGGGLVQAGGSLRLSCAASGSISVFYAMGWYRQAPGKEREFVAAISWRGGRTYYEDSVKARFTISRDNANNTVYLQMNSLKPEDTAVYYCAKDIVRGRSSRYDYWGQGTQVTVSS	high polyreactivity
QVQLVESGGGLVQAGGSLRLSCAASGSISVLNAMGWYRQAPGKERELVAAISRSGTRTYYADSVKGRFTLSRDNAKNTVYLQMNSLKPEDTAVYYCNALHRARLFGHYPYESWGQGTQVTVSS	high polyreactivity
QVQLVESGGGLVQAGGSLRLSCAASGSISVRNVMGWYRQAPGKERELVATIRRTGGSTSYADSVKGRFTISRDNAKNTVYLQLNSLKPEDTAVYDCADVRYTTYRRYEYWGQGTQVTVSS	low polyreactivity
QVQLVESGGGLVQAGGSLRLSCAASGSISVVNMGWYRQAPGKERELVASITSSGSTTYADSVKGRFTISRDNAKNTVYLQMNSLKPEDTAGYYCAASSTGYGGSTYYYWGQGTQVTVSS	low polyreactivity
QVQLVESGGGLVQAGGSLRLSCAASGSISYRYDMGWYRQSPGKERELVATIRSGGSTNYADSVKGRFTISRDNAKNTVYLQMNSLKPEDTAVYYCAARLYARKKLHFSADSDYWGQGSQVTVSS	low polyreactivity
QVQLVESGGGLVQAGGSLRLSCAASGSIVGIYVMGWYRQAPGKERELVAGISPRGGSTYYADSVKGRFTISRDYAKNTVYLQMNSLKPEDTAVYYCAAVPASFRYPMYYLGQGTQVTVSS	low polyreactivity
QVQLVESGGGLVQAGGSLRLSCAASGSIVKHYAMGWYRQAPGKERKLVATITRSGRTNYADSVKGRFTISRDNAKNTVYLQMNSLKPEDTAVYYCNTVRGGQSPHPVRYGYWGQGTQVTVSS	high polyreactivity

Sequence	polyreactivity (PSR sort gate)
QVQLVESGGGLVQAGGSLRLSCAASGSIVRYNTMGWYRQAPGKERELVASIRIGGSTYYADSVKGRFTISRDNAKNTVYLQMNSLKAEDTAVYYCAVRPYRSAGGSVTRGAYYYWGQGTQVTVSS	high polyreactivity
QVQLVESGGGLVQAGGSLRLSCAASGSIVYYAMGWYRQAPGKERELVAAINTSGGSTYYADSVKGRFTISRDNAKNTVYLQMNSLKPEDTAVYYCAAVYVGYITGFKRGYWGQGTQVTVSS	high polyreactivity
QVQLVESGGGLVQAGGSLRLSCAASGSIYDSYDMGWYRQAPGKERELVAAITSGGSTNYADSVKGRFTISRDNAKITVYLQMNSLKPEDTAVYYCAAYYWYPVYYGYDYWGQGTQVTVSS	low polyreactivity
QVQLVESGGGLVQAGGSLRLSCAASGSIYGDNAMGWYRQAPGKERELVAAINYNGGRTYYADSVKGRFTISRDTAKNTVYLQMNSLKPEDTAVYSCAKDNYQAPVQQYPFDYWGQGTQVTVSS	low polyreactivity
QVQLVESGGGLVQAGGSLRLSCAASGSIYGYAMGWYRQAPGKERELVAAISGRGGRTYYADSVKGRFTISRDNAKNTVYLQMNSLKPEDTAVYYCNVQWRYPYHYTVDYWGQGTQVTVSS	high polyreactivity
QVQLVESGGGLVQAGGSLRLSCAASGSIYGYYAMGWSRQAPGKERELVAAISWSDGSTYYADSVKGRFTISRDNAKNTVYLQMNSLKPEDTAVYYCAARFTPYITSDDGHYDYWGQGTQVTVSS	low polyreactivity
QVQLVESGGGLVQAGGSLRLSCAASGSIYHYYAMGWYRQAPGKERELVAAISWSGGRTNYADSVKGRFTISRDNAKNTVYLQMNSLKPEDTAVYYCAARARYPNWTYYYWGQGTQVTVSS	high polyreactivity
QVQLVESGGGLVQAGGSLRLSCAASGSIYPNYTMGWYRQAPGKERQLVAAITISGGTTYYSDSVKGRFTISRDNAKNTVYLQMISLKPEDTAVYYCADYHRDRNSGFDYWGQGTQVTVSS	high polyreactivity
QVQLVESGGGLVQAGGSLRLSCAASGSIYQNAMGWYRQAPGKQRELVAAITSSGGRTYADSVKGRFTISRDNAKNTVYLQMNSLIPEDTAVYYCAKDSTADELNGFDYWGQGTQVTVSS	low polyreactivity
QVQLVESGGGLVQAGGSLRLSCAASGSIYRRNAMGWYRKAPRKERELVAAISSNGGSTYYADSVKGRFTISRDNAMNTVYLQMNSLKPEDSAVYYCAASPSGWRYDYWGQGTQVTVSS	high polyreactivity
QVQLVESGGGLVQAGGSLRLSCAASGSIYRTNAMGWYRQAPGKERELVAAITGSGGSTYYADSVKGRFTISRDNAKNTVYLQMNSLKPEDTAVYYCAAEFGSFVSPYNYYYWGQGTQVTVSS	low polyreactivity
QVQLVESGGGLVQAGGSLRLSCAASGSIYRYAMGWYRQAPGKEREFVAAITGGSGSTYYADSVKGRFTISRDNAKNTVYLQMNSLKPEDTAVYYCAASIWRGLTPLLIGFDYWGQGTQVTVSS	high polyreactivity
QVQLVESGGGLVQAGGSLRLSCAASGSIYRYNDMGWYRQAPGKERELVATITSGTNTYYADSVKGRFTISRDNAKNTVYLQMNSLKPEDTAVYYCAKSYIAWDGRTFEEMYYWGQGTQVTVSS	low polyreactivity
QVQLVESGGGLVQAGGSLRLSCAASGSIYRYYDMGWYRQAPGKERELVAAITYSGGGTYYADSVKGRFTISRDNAKNTVYLQMNSLKPEDTAVYYCAAEPYYGWKRLDYWGQVTQVTVSS	low polyreactivity
QVQLVESGGGLVQAGGSLRLSCAASGSIYSHYAMGWYRQAPGKERELVAAITKSGSTTYYADSVKGRFTSSRDNAKNTVYLQMNSLKPEDTAVYDCWGQGTQVTVSS	low polyreactivity
QVQLVESGGGLVQAGGSLRLSCAASGSIYSNAMGWYRPAPGKERELVAAISGSGSTTYYADSVKGRFTISRDNAKNTVYLQMNSLKPEDTAVYYCARGVYGRGRTERYYWGQGTQVIVSS	high polyreactivity
QVQLVESGGGLVQAGGSLRLSCAASGSIYSTYAMGWYRQAPGKERELVAAITSDGTYADSVKGRFTISRDNARNTVYLQMNSLKPEDTAVYYCAAYYPYTRHGDYWGQGTQVTVSS	low polyreactivity
QVQLVESGGGLVQAGGSLRLSCAASGSIYTNAMGWYRQAPGKERELVAAISWSGGRTYYADSVKGRFTISRDNAKNTVYLQMNSLKPEDTAVYYCAADYYYSQVAYDYWGQGTQVTVSS	high polyreactivity
QVQLVESGGGLVQAGGSLRLSCAASGSIYVKGWYRQAPGKERELVAAISTNGGRTYYADSVKGRFTISRDNAKITVYLQLTSLKPEDTAVYYCAVRTTPKTRRFYYWGQGTQVTVSS	high polyreactivity
QVQLVESGGGLVQAGGSLRLSCAASGSIYVNAMGWYRQEPGKERELVAVISKSGGSTYYADSVKGRFTISRDNAKNTVYLQMNSLKPEDTAVYYCATRGVSPSRPGYYWGQGTKVTVSS	high polyreactivity
QVQLVESGGGLVQAGGSLRLSCAASGSIYWYAMGWYRQAPGKERELVAAISRRGGSTYYADSVKGRFTISRDNDKNTVYLQMNSLKPEDTAVYYCAVGIYGEYDYWGQGTQVTVSS	high polyreactivity
